Experimental data as given in patent US20240254259A1 (NATIONAL RESEARCH COUNCIL CANADA, published 2024).

B1: sdABP06 (VHH with BAP and His6 tags) (VHH)
VHH: EVQLVDSGGGLVQPGGSLRLSCAASGFTFSNYDMSWVRQGPGKGPEWVSIISYVGGLTRYSDSVKGRFTISRDNAKNTLYLQMNSLNTEDTALYYCARVKSMHPTSTTGEYDYRGRGTQVTVSS
modifications: biotin on the Biotinylation Acceptor Peptide in the flow cytometry and immunoprecipitation assays
notes: Monomeric llama VHH with BAP and His6; also called sdAb06
B2: sdABP07 (VHH with BAP and His6 tags) (VHH)
VHH: EVQLVESGGGLVEYGGSLRLSCAASESTLDNYAIAWFRQAPGKEREVVSCVGKSGGRSDYADSVKGRFTISRDNAKNTVYLQMNSLKPEDTAVYSCAARRVWFGGCVLGTSQGQYDYWGQGTQVTVSS
modifications: biotin on the Biotinylation Acceptor Peptide in the flow cytometry and immunoprecipitation assays
notes: Monomeric llama VHH with BAP and His6; also called sdAb07
B3: sdABP05 (VHH with BAP and His6 tags) (VHH)
VHH: EVQLVESGGGLVQPGGSLRLSCAASGFTFSTYAMTWVRKAPGKGFEWISSIDSGGGVTLYADSVKGRFTISKDNAKNTLYLQMNNLKPDDTAVYYCVKNYGSTSLQSRGQGTQVTVSS
modifications: biotin on the Biotinylation Acceptor Peptide in the flow cytometry and immunoprecipitation assays
notes: Monomeric llama VHH with BAP and His6; also called sdAb05
B4: sdABP03 (VHH with BAP and His6 tags) (VHH)
VHH: EVQLVESGGGLVQPGGSLRLSCATSEFTLDYYAIGWFRQAPGKEREGVSCISSSGGTTNYADSVKGRFTISSDNAKNTVSLQMNSLRPEDTAVYYCAAARVSAYYLGNYGCLNAEYGYWGQGTQVTVSS
modifications: biotin on the Biotinylation Acceptor Peptide in the flow cytometry and immunoprecipitation assays
notes: Monomeric llama VHH with BAP and His6; also called sdAb03

How the values were obtained:
[1] = molecular target: full length human DPEP-1 displayed on HEK293T / HEK293-6E cells (human) (UniProt P16444); assay: flow cytometry, biotinylated negative control VHH at 100 nM on HEK-293T cells overexpressing human DPEP-1, streptavidin-PE; the same number stands in all seven panels
[2] = molecular target: T1, recombinant human DPEP-1 ectodomain (human, UniProt P16444 17-385, chemically biotinylated with NHS-LC-LC-Biotin in the SPR assay); assay: SPR, single-cycle kinetics, biotinylated hDPEP-1 ectodomain captured, VHH flowed; mean ± SD of triplicates
T1 construct: range 17-385; The limits 17-385 are given for the immunogen; also called hDPEP-1 ectodomain; hDPEP-1 ECD
T1 sequence (looked up): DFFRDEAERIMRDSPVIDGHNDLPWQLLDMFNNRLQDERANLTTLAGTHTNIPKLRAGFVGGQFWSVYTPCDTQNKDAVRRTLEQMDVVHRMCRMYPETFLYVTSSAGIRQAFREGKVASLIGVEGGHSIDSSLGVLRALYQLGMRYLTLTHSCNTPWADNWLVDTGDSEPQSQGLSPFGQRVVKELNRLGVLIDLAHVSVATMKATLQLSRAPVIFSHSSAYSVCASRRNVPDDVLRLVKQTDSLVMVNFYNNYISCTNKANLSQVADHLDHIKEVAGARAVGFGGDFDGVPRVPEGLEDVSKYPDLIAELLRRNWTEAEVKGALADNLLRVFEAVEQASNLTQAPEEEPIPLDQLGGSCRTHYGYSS
Method: (§1) The binding affinity of DPEP-1-specific VHHs was analyzed by surface plasmon resonance (SPR). Recombinant human DPEP-1 (hDPEP-1) ectodomain was chemically biotinylated using EZ-Link™ NHS-LC-LC-Biotin (Thermo Fisher, Cat #21343) following manufacturer instructions. Biotinylated recombinant hDPEP-1 ectodomain was then captured on CM5 sensorchip surfaces using Biotin CAPture reagent followed by flowing over surfaces VHHs at concentrations ranging from 0.625-10 nM (sdABP02), 2.5-40 nM (sdABP03/05/07), 6.25-100 nM (sdABP06) and 12.5-200 nM (sdABP01/04). Dark lines represent data points, light lines fit to the data. Data were generated in triplicates. Diagonal lines represent equilibrium dissociation constants, KDs. KD values (mean±SD) obtained in FIG. 2A are shown in Table 4. sdABP01 binding data gave poor fit to the 1:1 binding model. As a result, its KD could not be determined with certainty. A better fit was observed using the heterogeneous ligand binding model.

[3] = molecular target: T1, recombinant human DPEP-1 ectodomain; assay: SPR single-cycle kinetics; biotinylated h-DPEP1 captured on the chip, VHH flowed over; 1:1 binding model, 25 C; one replicate of three [con't]
Method: (§2) Recombinant human DPEP-1 was biotinylated as described in Example 3 and captured on CM5 sensorchip surfaces using Biotin CAPture reagent followed by flowing over surfaces VHHs at concentrations ranging from 0.625-10 nM (sdABP02), 2.5-40 nM (sdABP03/05/07), 6.25-100 nM (sdABP06) and 12.5-200 nM (sdABP01/04). Dark lines represent data points, light lines fit to the data. Data were generated in triplicates and data for one replicate set are shown.
as §1

[4] = molecular target: T2, full length human DPEP-1 displayed on HEK293T / HEK293-6E cells (human, UniProt P16444 17-385); assay: flow cytometry, biotinylated VHH titrated on HEK-293-6E cells overexpressing hDPEP-1
T2 construct: whole, on cells; GPI-anchored on the cell surface; also called hDPEP-1
T2 sequence (looked up): T1 sequence (looked up)
Method: (§3) VHH concentrations at 50% binding, EC₅₀ values, were calculated from graphs and recorded in Table 5.
(§4) Binding of biotinylated VHHs to hDPEP-1 was detected using streptavidin-phycoerythrin (SPE). The binding profile of the anti-DPEP-1 rabbit pAb (Proteintech, Cat #12222-1-AP) positive control is shown as inset. Binding of the rabbit pAb was detected using goat anti-rabbit IgG antibody conjugated to phycoerythrin (Thermo Fisher, Cat #P-2771MP). Graphs in FIG. 3B with similar maximal fluorescence plateau are grouped together and shown in FIG. 3C (A20.1 VHH is shown for comparison). Three independent experiments were performed and data were collected on a Beckman CytoFLEX Analyzer followed by analysis with FlowJo v10.6.2 (TreeStar). EC₅₀ values were calculated from FIG. 3C and recorded in Table 5. Based on the binding measured by flow cytometry, four affinity groups may be identified: medium (sdABP01/03), high (sdABP02/04/07), high-very high (sdABP05), and very high (sdABP06).

[5] = molecular target: T2, full length human DPEP-1 displayed on …; assay: flow cytometry on human DPEP-1-expressing cells, monomeric VHH (Table 8 restating Table 5)
Method: as §3, §4

[6] = molecular target: T1, recombinant human DPEP-1 ectodomain; assay: SPR single-cycle kinetics; biotinylated h-DPEP1 captured on the chip, VHH flowed over; 1:1 binding model, 25 C; one replicate of three
Method: as §2, §1

Molecule | geometric mean fluorescence intensity (number above the histogram) [1] | Kd [2] [nM] | Kd [3] [nM] | koff [3] [s⁻¹] | kon [3] [M⁻¹ s⁻¹] | EC50 [4] [nM] | EC50 [5] [nM] | Kd [6] [nM] | koff [6] [s⁻¹] | kon [6] [M⁻¹ s⁻¹]
Clostridium difficile toxin A-specific A20.1 VHH | 106 | – | – | – | – | – | – | – | – | –
B1 | – | 6.32 | 5.91 | 0.00103 | 175000 | 0.96 | 0.96 | – | – | –
B2 | – | 5.09 | 5.05 | 0.00835 | 1.65e+06 | 15 | 15 | – | – | –
B3 | – | 10.6 | – | – | – | 5.3 | 5.3 | 12.8 | 0.0276 | 2.15e+06
B4 | – | 27 | 26.9 | 0.0605 | 2.25e+06 | 550 | 550 | – | – | –
